{
  "source": "paper PMC3696110",
  "about": "“Hsp70 Oligomerization Is Mediated by an Interaction between the Interdomain Linker and the Substrate-Binding Domain” (PLoS ONE, 2013)",
  "binders": {"B1": {"name": "NR peptide (NRLLLTG) (peptide)", "peptide": "NRLLLTG"}},
  "target": "SBD641 (384-641), full-length substrate-binding domain of human Hsp70 with the interdomain linker (human) (UniProt P0DMV8)",
  "assay": "native MS; nESI-MS of SBD641 with NR peptide at 1:1 molar ratio, 150 mM ammonium acetate pH 7.4, sample cone voltage 60 V (raised for collisional activation)",
  "data": [
    {"binder": "B1", "values": [
      {"measurement": "peptide molecules bound per SBD641 dimer", "value": "< 2"},
      {"measurement": "stoichiometry N", "value": 1}
    ]}
  ]
}
